Values of other authors in US8460910B2 (Illumina Cambridge Limited, priority 2003, dated 2013).

Tested on: ddNTPs
Conditions: cited from earlier work

B1: A486Y variant of Pfu DNA polymerase: Pfu DNA polymerase with A486Y mutation (Evans et al. 2000) (protein, UniProt P61875 1-775, looked up, variant A486Y)
DNA polymerase: MILDVDYITEEGKPVIRLFKKENGKFKIEHDRTFRPYIYALLRDDSKIEEVKKITGERHGKIVRIVDVEKVEKKFLGKPITVWKLYLEHPQDVPTIREKVREHPAVVDIFEYDIPFAKRYLIDKGLIPMEGEEELKILAFDIETLYHEGEEFGKGPIIMISYADENEAKVITWKNIDLPYVEVVSSEREMIKRFLRIIREKDPDIIVTYNGDSFDFPYLAKRAEKLGIKLTIGRDGSEPKMQRIGDMTAVEVKGRIHFDLYHVITRTINLPTYTLEAVYEAIFGKPKEKVYADEIAKAWESGENLERVAKYSMEDAKATYELGKEFLPMEIQLSRLVGQPLWDVSRSSTGNLVEWFLLRKAYERNEVAPNKPSEEEYQRRLRESYTGGFVKEPEKGLWENIVYLDFRALYPSIIITHNVSPDTLNLEGCKNYDIAPQVGHKFCKDIPGFIPSLLGHLLEERQKIKTKMKETQDPIEKILLDYRQKYIKLLANSFYGYYGYAKARWYCKECAESVTAWGRKYIELVWKELEEKFGFKVLYIDTDGLYATIPGGESEEIKKKALEFVKYINSKLPGLLELEYEGFYKRGFFVTKKRYAVIDEEGKVITRGLEIVRRDWSEIAKETQARVLETILKHGDVEEAVRIVKEVIQKLANYEIPPEKLAIYEQITRPLHEYKAIGPHVAVAKKLAAKGVKIKPGMVIGYIVLRGDGPISNRAILAEEYDPKKHKYDAEYYIENQVLPAVLRILEGFGYRKEDLRYQKTRQVGLTSWLNIKKS
improvement of ratio of ddNTP/dNTP in sequencing ladders compared to wild type: 150 fold
